In patent US20230406919A1 (Johns Hopkins, published 2023):
Blank lines part the entries; values can stand above or below the binder they belong to.

Tests used:
[1] = biological target: T1, Calmodulin (CaM) (mammalian, UniProt P0DP23 1-149); test: co-expression in E. coli, GST pull-down and anion exchange chromatography
T1 construct: also called free CaM; CaM alone

[2] = biological target: T1, Calmodulin (CaM); test: periplasmic-extract ELISA, 1:100 extract on 0.1 ug coated Ca2+CaM or apoCaM, anti-HA detection; positive above absorbance 2

binding result [1]: no binding
B1: CTNav1.9T (other)
chain: ENFNTATEESEDPLGEDDFDIFYEVWEKFDPEATQFIKYSALSDFADALPEPLRVAKPNKYQFLVMDLPMVSEDRLHCMDILFAFTARVLGGSDGLDSMKAMMEEKFMEANPLKKLYEPIVTTTKRKEEERGAAIIQKAFRKYMMKVTKGDQGDQNDLENGPHS
notes: range 1605-1768; GST tag cleaved

binding result [2]: binds
B2: Nb26 (VHH)
VHH: QVQLQESGGGSVQAGGSLRLSCVASGRTFSSYAMAWFRQVPGKEREFVGRISRSGGSTMYADSVKGRFDISRDNAKNTVFLQMSSLKPEDTAVYYCAAKAAVILTGIPDYWGQGTQVTVSS
notes: pHEN4 clone, HA-tagged, periplasmic extract; also called family 4

binding result [1]: no binding
B3: CTNav1.9FL (other)
chain: ENFNTATEESEDPLGEDDFDIFYEVWEKFDPEATQFIKYSALSDFADALPEPLRVAKPNKYQFLVMDLPMVSEDRLHCMDILFAFTARVLGGSDGLDSMKAMMEEKFMEANPLKKLYEPIVTTTKRKEEERGAAIIQKAFRKYMMKVTKGDQGDQNDLENGPHSPLQTLCNGDLSSFGVAKGKVHCD
notes: range 1605-1791; GST tag cleaved
